target: CXCR4 on THP-1 cells (human (endogenous in THP-1)) (UniProt P61073)
Sequence (P61073 whole entry): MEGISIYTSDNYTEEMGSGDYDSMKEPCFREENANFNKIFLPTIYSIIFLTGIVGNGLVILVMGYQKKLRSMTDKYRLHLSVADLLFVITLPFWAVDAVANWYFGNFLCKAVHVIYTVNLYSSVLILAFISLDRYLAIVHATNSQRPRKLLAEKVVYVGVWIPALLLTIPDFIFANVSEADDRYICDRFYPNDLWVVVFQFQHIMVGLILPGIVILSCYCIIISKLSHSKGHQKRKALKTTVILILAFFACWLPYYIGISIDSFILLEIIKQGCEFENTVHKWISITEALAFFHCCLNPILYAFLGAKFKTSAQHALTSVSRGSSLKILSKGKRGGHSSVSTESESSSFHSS

Chain of SDF-1 Arg47Glu (P48061 22-93 R68E): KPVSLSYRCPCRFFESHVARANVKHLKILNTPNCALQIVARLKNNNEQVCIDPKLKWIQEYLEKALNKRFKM
Chain of SDF-1 Val49Ala (P48061 22-93 V70A): as the sequence (P48061 22-93 R68E) above, with E47R, V49A counted along it
Chain of SDF-1 Glu63Ala (P48061 22-93 E84A): as the sequence (P48061 22-93 R68E) above, with E47R, E63A counted along it
Chain of SDF-1 Val39Ala (P48061 22-93 V39A): as the sequence (P48061 22-93 R68E) above, with V18A, E47R counted along it
Chain of SDF-1 Arg47Ala (P48061 22-93 R68A): as the sequence (P48061 22-93 R68E) above, with E47A counted along it
Chain of SDF-1 Lys64Ala (P48061 22-93 K64A): as the sequence (P48061 22-93 R68E) above, with K43A, E47R counted along it
Chain of SDF-1 Lys27Ala (P48061 22-93 K48A): as the sequence (P48061 22-93 R68E) above, with K27A, E47R counted along it
Chain of SDF-1 Glu60Ala (P48061 22-93 E81A): as the sequence (P48061 22-93 R68E) above, with E47R, E60A counted along it
Chain of SDF-1 Lys27Glu (P48061 22-93 K48E): as the sequence (P48061 22-93 R68E) above, with K27E, E47R counted along it

EC50 of Ca2+ mobilization in THP-1 cells [nM]	Substance
12.9	SDF1(L36C/A65C), covalently-locked symmetric dimer (from UniProt P48061 22-93) (ligand)

target: CXCR4 on THP-1 cells (human (endogenous in THP-1)) (UniProt P61073); remark: another data set of the same source

EC50 of Ca2+ mobilization in THP-1 cells [nM]	Substance
14.1	SDF-1 Arg47Ala (from UniProt P48061 22-93) (ligand)
3.6	stromal cell derived factor-1 (SDF-1, also known as CXCL12), wild type (from UniProt P48061 22-93) (ligand)
8.6	SDF-1 Val49Ala (from UniProt P48061 22-93) (ligand)
4.1	SDF-1 Glu60Ala (from UniProt P48061 22-93) (ligand)
4.3	SDF-1 Arg20Ala (from UniProt P48061 22-93) (ligand)
10.1	SDF-1 Lys27Ala (from UniProt P48061 22-93) (ligand)
5	SDF-1 Lys64Ala (from UniProt P48061 22-93) (ligand)

More lines, now with the values behind:

Substance	EC50 of Ca2+ mobilization in THP-1 cells [nM]
SDF-1 Glu63Ala (from UniProt P48061 22-93) (ligand)	3.7
SDF-1 Val39Ala (from UniProt P48061 22-93) (ligand)	27.1
SDF1(H25R) (from UniProt P48061 22-93) (ligand)	5.1
SDF-1 Arg41Ala (from UniProt P48061 22-93) (ligand)	4.3
SDF-1 Lys27Glu (from UniProt P48061 22-93) (ligand)	16.8
SDF-1 Arg47Glu (from UniProt P48061 22-93) (ligand)	654

— paper PMC2692298
